Assay [1] concerns HaCaT cells. Put plainly: In vitro migration test (scratch). It is filed as cell-based. The settings on record: 10 nM, 24-hour intervals, compared with native KGF. The protocol: HaCaT cells were aliquoted into 24-well plates at a specific cell/well and incubated at 37° C. in a 5% CO2 incubator with 10% FBS and 1% P/S-DMEM for one day. Starvation was performed with FBS Free DMEM for one day. Cells were scratched in a straight line using a 1000 ? pipette tip. After washing twice with DPBS, CSQ-KGF, CSQ, and KGF were added to FBS Free DMEM at a concentration of 10 nM, and the sample was divided so that the total volume became 500 ? . While culturing in a 5% CO2 incubator at 37° C. scratches were observed using a phase-contrast microscope at 24-hour intervals from […], and photographs were taken. The extent of wound closure was compared by analyzing the scratch area of the captured images using ImageJ.

Assay [2] has as its system HaCaT cells. Put plainly: In vitro proliferation test (XTT). It is filed as cell-based. The settings on record: 2.5 nM, 2 days, compared with native KGF. The protocol:
HaCaT cells in 96-well plates were aliquoted at a specific cell/well and incubated at 37° C. in a 5% CO2 incubator with 10% FBS and 1% P/S-DMEM for one day. Starvation was performed with FBS Free DMEM for one day. After washing twice with DPBS, CSQ-KGF, CSQ, and KGF were added to FBS-free DMEM at a concentration of 2.5 nM, and the sample was divided so that the total volume became 200 ? . After incubation in an incubator for 2 days, XTT cell availability kit reagents were aliquoted, and then 450 nm absorbance was determined with a microplate reader.
On the technique in general: Tetrazolium dyes change colour on reduction, which living cells bring about.

The record followed here is US20260115299A1, “CALSEQUESTRIN-BASED METAL ION REACTIVE PARTICLE AND USES THEREOF” (TOOLBIO. CO.,LTD., priority 2022, published 2026).

B1: CSQ-KGF: fusion protein of human calsequestrin CSQ1 (SEQ ID No. 1) and KGF (SEQ ID No. 12) (protein)
chain: QEGLDFPEYDGVDRVINVNAKNYKNVFKKYEVLALLYHEPPEDDKASQRQFEMEELILELAAQVLEDKGVGFGLVDSEKDAAVAKKLGLTEVDSMYVFKGDEVIEYDGEFSADTIVEFLLDVLEDPVELIEGERELQAFENIEDEIKLIGYFKSKDSEHYKAFEDAAEEFHPYIPFFATFDSKVAKKLTLKLNEIDFYEAFMEEPVTIPDKPNSEEEIVNFVEEHRRSTLRKLKPESMYETWEDDMDGIHIVAFAEEADPDGFEFLETLKAVAQDNTENPDLSIIWIDPDDFPLLVPYWEKTFDIDLSAPQIGVVNVTDADSVWMEMDDEEDLPSAEELEDWLEDVLEGEINTEDDDDDDDDMCNDMTPEQMATNVNCSSPERHTRSYDYMEGGDIRVRRLFCRTQWYLRIDKRGKVKGTQEMKNNYNIMEIRTVAVGIVAIKGVESEFYLAMNKEGKLYAKKECNEDCNFKELILENHYNTYASAKWTHNGGEMFVALNQKGIPVRGKKTKKEQKTAHFLPMAIT
Take B1: the “migration efficacy (extent of wound closure, scratch area)” value in the assay on HaCaT cells [1] is given as “same efficacy as native KGF”. Besides, in the assay on HaCaT cells [2], the “proliferation efficacy (450 nm absorbance, XTT)” value is recorded as “same efficacy as native KGF”.
